Experimental data: patent publication US20200317768A1 (published 2020)

T1: human FcγRIIb extracellular domain with C-terminal His-tag (human, UniProt P31994 43-217)
T1 construct: also called human FcgRIIb
T1 sequence: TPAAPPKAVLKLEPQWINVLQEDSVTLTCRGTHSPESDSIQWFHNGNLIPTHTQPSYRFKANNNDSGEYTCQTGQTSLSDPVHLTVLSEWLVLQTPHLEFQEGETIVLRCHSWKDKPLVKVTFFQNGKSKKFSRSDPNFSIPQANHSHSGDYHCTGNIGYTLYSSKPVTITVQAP


Key:
[1] = molecular target: T1, human FcγRIIb extracellular domain with …; experiment: SPR (BIACORE), antibody captured, FcgR analyte
[2] = molecular target: T2, human FcγRIIIaV extracellular domain with C-terminal His-tag (human, UniProt P08637 17-208); experiment: SPR (BIACORE), antibody captured, FcgR analyte
T2 construct: also called human FcgRIIIaV
T2 sequence (P08637 17-208 F176V): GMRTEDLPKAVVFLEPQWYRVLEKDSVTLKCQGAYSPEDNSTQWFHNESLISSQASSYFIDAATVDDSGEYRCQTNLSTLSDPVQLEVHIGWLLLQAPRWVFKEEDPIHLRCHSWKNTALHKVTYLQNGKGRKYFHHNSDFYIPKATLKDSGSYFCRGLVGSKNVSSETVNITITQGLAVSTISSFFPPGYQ

| Kd [1] [nM] | Kd [2] [nM] | Binder |
| --- | --- | --- |
| 1100 | 5500 | M103205H795-MY523/M103202L889-SK1 (antibody, human IgG1, kappa, Substitutions introduced into M103205H795-SG1, expressed with M103202L889-SK1 as light chain; EU numbering) heavy: QVTLKESGPVLVKPTETLTLTCTVSGIDLSHDDISWVRQAPGKGLEWVGIISYAGSTYYASWAKGRLTISKDTSKNQVVLTMTNMDPVDTATYYCARGVPAYSHGGDLWGQGTLVTVSSASTKGPSVFPLAPSSKSTSGGTAALGCLVKDYFPEPVTVSWNSGALTSGVHTFPAVLQSSGLYSLSSVVTVPSSSLGTQTYICNVNHKPSNTKVDKKVEPKSCDKTHTCPPCPGPELLTGPVVFLFPPKPKDTLMISRTPEVTCVVVDVSDEDPEVKFNWYVDGVEVHNAKTKPREELYNSTYRVVSVLTVLHQDWLNGKEYKCKVSNKALPKPIEKTISKAKGQPREPQVYTLPPSREEMTKNQVSLTCLVKGFYPSDIAVEWESNGQPENNYKTTPPVLDSDGSFFLYSKLTVDKSRWQQGNVFSCSVMHEALHNHYTQKSLSLSP light: DIVMTQSPATLSLSPGERATLSCTSSQSVYHANWLSWFQQKPGQPPKLLIYWASTLAYGVPSRFSGSGSGTDFTLTISSLQPEDAATYYCAGGYGGGRYAFGQGTKVEIKRTVAAPSVFIFPPSDEQLKSGTASVVCLLNNFYPREAKVQWKVDNALQSGNSQESVTEQDSKDSTYSLSSTLTLSKADYEKHKVYACEVTHQGLSSPVTKSFNRGEC |
| 1200 | 4300 | M103205H795-MY525/M103202L889-SK1 (antibody, human IgG1, kappa, Substitutions introduced into M103205H795-SG1, expressed with M103202L889-SK1 as light chain; EU numbering) heavy: QVTLKESGPVLVKPTETLTLTCTVSGIDLSHDDISWVRQAPGKGLEWVGIISYAGSTYYASWAKGRLTISKDTSKNQVVLTMTNMDPVDTATYYCARGVPAYSHGGDLWGQGTLVTVSSASTKGPSVFPLAPSSKSTSGGTAALGCLVKDYFPEPVTVSWNSGALTSGVHTFPAVLQSSGLYSLSSVVTVPSSSLGTQTYICNVNHKPSNTKVDKKVEPKSCDKTHTCPPCPTPELLTGPVVFLFPPKPKDTLMISRTPEVTCVVVDVSDEDPEVKFNWYVDGVEVHNAKTKPREEQYNSTYRVVSVLTVLHQDWLNGKEYKCKVSNKALPKPIEKTISKAKGQPREPQVYTLPPSREEMTKNQVSLTCLVKGFYPSDIAVEWESNGQPENNYKTTPPVLDSDGSFFLYSKLTVDKSRWQQGNVFSCSVMHEALHNHYTQKSLSLSP light: DIVMTQSPATLSLSPGERATLSCTSSQSVYHANWLSWFQQKPGQPPKLLIYWASTLAYGVPSRFSGSGSGTDFTLTISSLQPEDAATYYCAGGYGGGRYAFGQGTKVEIKRTVAAPSVFIFPPSDEQLKSGTASVVCLLNNFYPREAKVQWKVDNALQSGNSQESVTEQDSKDSTYSLSSTLTLSKADYEKHKVYACEVTHQGLSSPVTKSFNRGEC |
| 1000 | 4500 | M103205H795-MY524/M103202L889-SK1 (antibody, human IgG1, kappa, Substitutions introduced into M103205H795-SG1, expressed with M103202L889-SK1 as light chain; EU numbering) heavy: QVTLKESGPVLVKPTETLTLTCTVSGIDLSHDDISWVRQAPGKGLEWVGIISYAGSTYYASWAKGRLTISKDTSKNQVVLTMTNMDPVDTATYYCARGVPAYSHGGDLWGQGTLVTVSSASTKGPSVFPLAPSSKSTSGGTAALGCLVKDYFPEPVTVSWNSGALTSGVHTFPAVLQSSGLYSLSSVVTVPSSSLGTQTYICNVNHKPSNTKVDKKVEPKSCDKTHTCPPCPGPELLTGPSVFLFPPKPKDTLMISRTPEVTCVVVDVSDEDPEVKFNWYVDGVEVHNAKTKPREELYNSTYRVVSVLTVLHQDWLNGKEYKCKVSNKALPKPIEKTISKAKGQPREPQVYTLPPSREEMTKNQVSLTCLVKGFYPSDIAVEWESNGQPENNYKTTPPVLDSDGSFFLYSKLTVDKSRWQQGNVFSCSVMHEALHNHYTQKSLSLSP light: DIVMTQSPATLSLSPGERATLSCTSSQSVYHANWLSWFQQKPGQPPKLLIYWASTLAYGVPSRFSGSGSGTDFTLTISSLQPEDAATYYCAGGYGGGRYAFGQGTKVEIKRTVAAPSVFIFPPSDEQLKSGTASVVCLLNNFYPREAKVQWKVDNALQSGNSQESVTEQDSKDSTYSLSSTLTLSKADYEKHKVYACEVTHQGLSSPVTKSFNRGEC |
